Test results from the supplement of paper PMC9112550, “Optimization of the antimicrobial peptide Bac7 by deep mutational scanning” (BMC Biology, 2022).

Test system: Escherichia coli TOP10
Assay: shrunken log2 fold change of peptide-encoding DNA abundance (4.5 h post-induction vs induction); higher = less antimicrobial activity (less host growth inhibition)
Conditions: time post-induction: 4.5 h; library: site-saturation at positions 5, 18, 19, 20
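Note: peptides expressed intracellularly from a pBAD plasmid library in pooled LB shake-flask culture, induced with 0.3% L-arabinose, DNA abundance read by NGS, three biological replicates, DESeq2 with apeglm shrinkage.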

Sequence | shrunken log2 fold change
RRIRWRPPRLPRPRPRPFPSPRP | -0.1
RRIRVRPPRLPRPRPRPFICPRP | -0.331
RRIRCRPPRLPRPRPRPHKSPRP | 0.139
RRIRHRPPRLPRPRPRPFPNPRP | -0.0913
RRIRSRPPRLPRPRPRPICQPRP | -0.00676
RRIRLRPPRLPRPRPRPLQPPRP | 0.206
RRIRGRPPRLPRPRPRPFLWPRP | 0.996
RRIRVRPPRLPRPRPRPCPYPRP | -1.14
RRIRIRPPRLPRPRPRPCNIPRP | -0.106
RRIRKRPPRLPRPRPRPWFYPRP | -0.0799
RRIRQRPPRLPRPRPRPCGAPRP | 0.133
RRIRDRPPRLPRPRPRPFGLPRP | -0.259
RRIRRRPPRLPRPRPRPENDPRP | 0.785
RRIRARPPRLPRPRPRPNTFPRP | -0.0206
RRIRDRPPRLPRPRPRPIYVPRP | -0.0326
RRIRHRPPRLPRPRPRPTAAPRP | 0.518
RRIRPRPPRLPRPRPRPSPFPRP | -0.0752
RRIRKRPPRLPRPRPRPSYRPRP | 0.0249
RRIRHRPPRLPRPRPRPREFPRP | 0.0275
RRIRERPPRLPRPRPRPDMMPRP | 0.0556
RRIRFRPPRLPRPRPRPNPLPRP | 0.0861
RRIRVRPPRLPRPRPRPMNYPRP | -0.128
RRIRWRPPRLPRPRPRPTQHPRP | 0.333
RRIRLRPPRLPRPRPRPECLPRP | -0.00237
RRIRNRPPRLPRPRPRPAQWPRP | 0.525

Sequence | shrunken log2 fold change
RRIRIRPPRLPRPRPRPEIEPRP | -0.0562
RRIRARPPRLPRPRPRPKMLPRP | 0.332
RRIRKRPPRLPRPRPRPDMPPRP | 0.122
RRIRLRPPRLPRPRPRPPTIPRP | 0.168
RRIRARPPRLPRPRPRPGWAPRP | 0.72
RRIRARPPRLPRPRPRPHDQPRP | 0.808
RRIRNRPPRLPRPRPRPKCQPRP | 0.0753
RRIRQRPPRLPRPRPRPHMPPRP | -0.0493
RRIRQRPPRLPRPRPRPNCYPRP | -0.284
RRIRHRPPRLPRPRPRPEKSPRP | 0.0275
RRIRERPPRLPRPRPRPRFRPRP | 0.0352
RRIRERPPRLPRPRPRPNTWPRP | 0.0226
RRIRLRPPRLPRPRPRPCFQPRP | -0.512
RRIRDRPPRLPRPRPRPKERPRP | -0.0193
RRIRGRPPRLPRPRPRPAKDPRP | 1.84
RRIRIRPPRLPRPRPRPGSEPRP | -0.187
RRIRPRPPRLPRPRPRPYTEPRP | -0.349
RRIRKRPPRLPRPRPRPDAAPRP | 0.976
RRIRGRPPRLPRPRPRPHQNPRP | 0.58
RRIRTRPPRLPRPRPRPFQKPRP | -0.0018
RRIRWRPPRLPRPRPRPQPGPRP | 0.221
RRIRYRPPRLPRPRPRPCITPRP | -0.00269
RRIRIRPPRLPRPRPRPEQMPRP | 0.224
RRIRQRPPRLPRPRPRPFYYPRP | -0.59
RRIRPRPPRLPRPRPRPENNPRP | -0.119

Sequence | shrunken log2 fold change
RRIRQRPPRLPRPRPRPKSSPRP | 0.0321
RRIRWRPPRLPRPRPRPSWGPRP | 0.121
RRIRWRPPRLPRPRPRPALTPRP | 0.393
RRIRKRPPRLPRPRPRPDYDPRP | 0.143
RRIRIRPPRLPRPRPRPSGLPRP | 0.0161
RRIRERPPRLPRPRPRPDALPRP | -0.0722
RRIRTRPPRLPRPRPRPFGWPRP | 0.189
RRIRGRPPRLPRPRPRPNQCPRP | 0.0163
RRIRDRPPRLPRPRPRPTPLPRP | 0.484
RRIRYRPPRLPRPRPRPSILPRP | -1.25
RRIRIRPPRLPRPRPRPTISPRP | -0.385
RRIRGRPPRLPRPRPRPGMDPRP | 1.06
RRIRQRPPRLPRPRPRPRITPRP | 1.06
RRIRCRPPRLPRPRPRPIQQPRP | -0.0847
RRIRGRPPRLPRPRPRPSWTPRP | 0.219
RRIRGRPPRLPRPRPRPVNHPRP | 0.301
RRIRRRPPRLPRPRPRPYTKPRP | -0.284
RRIRLRPPRLPRPRPRPCMLPRP | -0.398
RRIRDRPPRLPRPRPRPQQHPRP | 0.0276
RRIRCRPPRLPRPRPRPIYIPRP | -0.43
RRIRYRPPRLPRPRPRPMYEPRP | -0.101
RRIRWRPPRLPRPRPRPVYNPRP | -0.817
RRIRMRPPRLPRPRPRPKMQPRP | 0.995
RRIRRRPPRLPRPRPRPHQIPRP | 0.0553
RRIRNRPPRLPRPRPRPATHPRP | 0.224

Sequence | shrunken log2 fold change
RRIRQRPPRLPRPRPRPNCFPRP | 0.0427
RRIRRRPPRLPRPRPRPCCLPRP | 0.0396
RRIRCRPPRLPRPRPRPDHLPRP | -0.0314
RRIRERPPRLPRPRPRPLRWPRP | 0.459
RRIRLRPPRLPRPRPRPCPWPRP | -0.129
RRIRARPPRLPRPRPRPRYSPRP | -0.121
RRIRDRPPRLPRPRPRPDWNPRP | -0.0851
RRIRHRPPRLPRPRPRPEFFPRP | 0.0155
RRIRNRPPRLPRPRPRPPLEPRP | 0.193
RRIRHRPPRLPRPRPRPPCQPRP | 0.0503
RRIRNRPPRLPRPRPRPHNLPRP | -0.272
RRIRPRPPRLPRPRPRPFETPRP | -0.117
RRIRLRPPRLPRPRPRPLIVPRP | -0.131
RRIRFRPPRLPRPRPRPKFRPRP | -0.0326
RRIRCRPPRLPRPRPRPITNPRP | -0.449
RRIRVRPPRLPRPRPRPCVGPRP | 0.00147
RRIRCRPPRLPRPRPRPIIMPRP | -0.888
RRIRHRPPRLPRPRPRPPWMPRP | 0.197
RRIRKRPPRLPRPRPRPLHAPRP | 0.449
RRIRGRPPRLPRPRPRPYMLPRP | -0.0745
RRIRERPPRLPRPRPRPAKEPRP | 0.0889
RRIRHRPPRLPRPRPRPERTPRP | 0.0203
RRIRDRPPRLPRPRPRPREEPRP | 1.27
RRIRCRPPRLPRPRPRPSCLPRP | -0.499
RRIRRRPPRLPRPRPRPASQPRP | 0.0789

Sequence | shrunken log2 fold change
RRIRLRPPRLPRPRPRPFIMPRP | -0.79
RRIRFRPPRLPRPRPRPYQSPRP | -0.00405
RRIRIRPPRLPRPRPRPKGSPRP | 0.00745
RRIRHRPPRLPRPRPRPLDTPRP | 0.0608
RRIRTRPPRLPRPRPRPFVTPRP | -0.298
RRIRNRPPRLPRPRPRPNVWPRP | 0.0184
RRIRKRPPRLPRPRPRPSNYPRP | -0.312
RRIRPRPPRLPRPRPRPGRPPRP | 0.155
RRIRDRPPRLPRPRPRPRSEPRP | -0.0682
RRIRCRPPRLPRPRPRPEALPRP | 0.0749
RRIRWRPPRLPRPRPRPYQCPRP | -0.325
RRIRERPPRLPRPRPRPSSAPRP | 0.0581
RRIRWRPPRLPRPRPRPKPVPRP | 0.006
RRIRYRPPRLPRPRPRPVKPPRP | 0.00519
RRIRSRPPRLPRPRPRPQKPPRP | -0.0986
RRIRGRPPRLPRPRPRPCYTPRP | 0.498
RRIRYRPPRLPRPRPRPQWNPRP | -0.108
RRIRVRPPRLPRPRPRPRFHPRP | -0.264
RRIRLRPPRLPRPRPRPDNCPRP | -0.0891
RRIRLRPPRLPRPRPRPNYQPRP | -0.773
RRIRRRPPRLPRPRPRPNNAPRP | -0.18
RRIRVRPPRLPRPRPRPNGPPRP | 0.144
RRIRYRPPRLPRPRPRPIGNPRP | 0.167
RRIRRRPPRLPRPRPRPWKTPRP | 0.00424
RRIRSRPPRLPRPRPRPIVGPRP | 0.0247
